Assay results from paper PMC8981723.

Biological target: Human PLA2G1B (phospholipase A2 group 1B), active form (human) (UniProt P04054)

Question: For “Recombinant HIV-1 gp41 MN protein (gp41 MN (565-771Delta642-725)) (from UniProt P05877 565-771) (domain or fragment)”, which PLA2G1B enzymatic activity ([3H]AA release from labeled human CD4 T cells), PLA2G1B 63 nM, gp41 0.68 nM-340 nM is on record?
Answer: > 20 fold
